Source: US10314894B2, “Treatment of cardio-renal disease using PCSK6” (THE CLEVELAND CLINIC FOUNDATION, priority 2014, dated 2019)
“Also recorded” adds a separate entry of the source.

Target: T1, corin WT (Homo sapiens, UniProt Q9Y5Q5)
T1 construct: expressed in transfected cells; host or cells: HEK293
T1 sequence (Q9Y5Q5 1-1042): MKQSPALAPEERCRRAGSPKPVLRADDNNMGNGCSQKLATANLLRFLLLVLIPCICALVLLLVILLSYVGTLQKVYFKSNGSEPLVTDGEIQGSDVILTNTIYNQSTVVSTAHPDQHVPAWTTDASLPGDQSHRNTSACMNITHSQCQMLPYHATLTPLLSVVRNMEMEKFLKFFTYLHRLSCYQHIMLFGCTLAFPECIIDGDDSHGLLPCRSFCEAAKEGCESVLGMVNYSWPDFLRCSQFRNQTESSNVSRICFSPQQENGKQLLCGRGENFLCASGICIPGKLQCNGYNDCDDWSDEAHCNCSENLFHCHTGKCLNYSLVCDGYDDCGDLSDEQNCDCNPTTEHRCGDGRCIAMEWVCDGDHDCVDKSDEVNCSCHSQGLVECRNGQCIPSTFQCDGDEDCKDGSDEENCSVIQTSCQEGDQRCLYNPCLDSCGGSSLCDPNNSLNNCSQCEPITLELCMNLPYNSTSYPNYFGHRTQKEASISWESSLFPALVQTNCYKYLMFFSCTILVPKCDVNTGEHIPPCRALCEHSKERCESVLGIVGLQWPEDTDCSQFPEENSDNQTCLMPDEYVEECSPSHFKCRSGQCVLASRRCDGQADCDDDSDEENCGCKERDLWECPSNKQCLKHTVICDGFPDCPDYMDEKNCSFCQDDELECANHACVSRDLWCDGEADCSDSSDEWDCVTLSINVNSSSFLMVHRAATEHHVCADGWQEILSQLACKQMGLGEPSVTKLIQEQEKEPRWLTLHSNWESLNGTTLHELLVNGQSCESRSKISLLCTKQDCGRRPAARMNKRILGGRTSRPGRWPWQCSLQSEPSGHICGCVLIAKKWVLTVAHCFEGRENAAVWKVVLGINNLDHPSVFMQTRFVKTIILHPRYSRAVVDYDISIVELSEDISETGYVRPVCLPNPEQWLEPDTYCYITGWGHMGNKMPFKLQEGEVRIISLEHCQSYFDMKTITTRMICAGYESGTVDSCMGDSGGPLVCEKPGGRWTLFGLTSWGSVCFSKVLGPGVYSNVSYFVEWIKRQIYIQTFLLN
Experiment: Corin activation by purified PCSK6 on HEK293 cells, corin WT
Format: cell-based
Conditions: increasing concentrations, 2 h, 37° C.
Procedure: HEK293 and HL-1 cells expressing recombinant corin in 6-well plates were incubated with 1.5 mL (200 μM) of membrane impermeable Sulfo-NHS-SS-biotin for 5 min. Qi et al., J Biol Chem 286, 20963-20969 (2011). A quenching solution was added to the wells and incubated on ice for 10 min. Cells were lysed in the lysis buffer. Labeled proteins were isolated with avidin-coupled agarose beads and analyzed by Western blotting.
Stable HEK293 cells were established to produce human PCSK6 with a C-terminal flag tag. The cells were cultured in DMEM with 10% FBS and 600 μg/mL G418. At confluency, the cells were washed with PBS and cultured with Reduced-Serum Medium. After 72 h, the conditioned medium was collected, centrifuged (10 min at 17,000 g) to remove cell debris, and concentrated to ⅕ of the original volume using a Centrifugal filter unit at 4° C. The concentrated medium was incubated with anti-flag M2 affinity bead slurry in a volume ratio of 25:1 on a rotator at 4° C. for 2 h. […] After centrifugation, the supernatant containing purified PCSK6 was collected, and analyzed by SDS-PAGE followed by silver staining and Western blotting.
Stable HEK293 cells expressing human corin were cultured in 6-well plates in DMEM with 10% FBS and 2 μM monensin. […] After 2 h, cell surface proteins were labeled and corin protein was analyzed by Western blotting.

B1: proprotein convertase subtilisin/kexin-6 (protein, listed as Homo sapiens)
chain: MPPRAPPAPGPRPPPRAAAATDTAAGAGGAGGAGGAGGPGFRPLAPRPWRWLLLLALPAACSAPPPRPVYTNHWAVQVLGGPAEADRVAAAHGYLNLGQIGNLEDYYHFYHSKTFKRSTLSSRGPHTFLRMDPQVKWLQQQEVKRRVKRQVRSDPQALYFNDPIWSNMWYLHCGDKNSRCRSEMNVQAAWKRGYTGKNVVVTILDDGIERNHPDLAPNYDSYASYDVNGNDYDPSPRYDASNENKHGTRCAGEVAASANNSYCIVGIAYNAKIGGIRMLDGDVTDVVEAKSLGIRPNYIDIYSASWGPDDDGKTVDGPGRLAKQAFEYGIKKGRQGLGSIFVWASGNGGREGDYCSCDGYTNSIYTISVSSATENGYKPWYLEECASTLATTYSSGAFYERKIVTTDLRQRCTDGHTGTSVSAPMVAGIIALALEANSQLTWRDVQHLLVKTSRPAHLKASDWKVNGAGHKVSHFYGFGLVDAEALVVEAKKWTAVPSQHMCVAASDKRPRSIPLVQVLRTTALTSACAEHSDQRVVYLEHVVVRTSISHPRRGDLQIYLVSPSGTKSQLLAKRLLDLSNEGFTNWEFMTVHCWGEKAEGQWTLEIQDLPSQVRNPEKQGKLKEWSLILYGTAEHPYHTFSAHQSRSRMLELSAPELEPPKAALSPSQVEVPEDEEDYTAQSTPGSANILQTSVCHPECGDKGCDGPNADQCLNCVHFSLGSVKTSRKCVSVCPLGYFGDTAARRCRRCHKGCETCSSRAATQCLSCRRGFYHHQEMNTCVTLCPAGFYADESQKNCLKCHPSCKKCVDEPEKCTVCKEGFSLARGSCIPDCEPGTYFDSELIRCGECHHTCGTCVGPGREECIHCAKNFHFHDWKCVPACGEGFYPEEMPGLPHKVCRRCDENCLSCAGSSRNCSRCKTGFTQLGTSCITNHTCSNADETFCEMVKSNRLCERKLFIQFCCRTCLLAG
modifications: C-terminal FLAG tag
activation of corin on the cell surface by purified recombinant PCSK6: activated corin on the surface of HEK293 cells in a dose-depending manner; also recorded: activated corin WT
